# Results reported in the nanobody polyreactivity screen of Harvey et al. (2022).
# Assay: yeast display, Sf9 membrane polyspecificity reagent, FACS + sequencing; frameworks hold sequencing errors
# In short: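 Galactose induction of a Saccharomyces cerevisiae BJ5465 synthetic nanobody display library ran 36–48 hours. The cells were then stained for 1 hour at 4 °C with 10% biotinylated, detergent-solubilized Sf9 membrane reagent, pulled down on streptavidin microbeads and FACS-sorted into low and high (top ~1%) gates on expression and reagent-binding fluorescence. Labels for polyreactivity follow the gate of origin.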
row,Sequence,polyreactivity (PSR sort gate)
1,QVQLLESGAGLLQAGGSLRLSCAASGRTFLKYAMGWYRQAPGKERELVAAISRGDSTYYADSVKGRFTISRDNAKNTVYLQMNSLKTEDTAVYFCAKPGYYVRYGYWGQGTQVTVSS,high polyreactivity
2,QVQLVESGGGLVQAGGSLRLSCAASGFTFSGYDMGWYRQAPGKERELVAGISSGGVSTTYADSVKGRFTISRDNAKNTVYLQMNSLKPEDTAVYYCSTSGPQYYSRNFDYWGQGTQVTVSS,low polyreactivity
3,QVQLVESGGGLVQAGGSLRLSCAASGSTFGWYTMGWYRQSPGKERELVAAITSRGTRTSYADSVKGRFTISRDYAKNTVYLQMNSLKPEDTAVYYCAARVFRGLGEYYWGQGTQVTVSS,high polyreactivity
4,QVQLVESGGGLVQAGGTLRLSCAASGGIFTDYTMGWYRQAPGKERELVAAITWTGGSTYYADSVKGRFTISRDNAKNTVYLQMNSLKPEDTAVYYCAADDYWVNLDYWGQGTQVTVSS,low polyreactivity
5,QVQLVDSGGGLVQAGGSLRLSCAASGITFYVNAMGWYRQAPRKERELVASISTGGSTNYADSVKGRFTISRDNAKNTVYLQMNSLKPEDTAVYYCAARVDYHPSLRDYWGQGTQVTVSS,low polyreactivity
6,QVQLVESGGGLVQAGGSLRLSCAASGSILSLYTMGWYRQAPGKERELVAAITSRGTRTYYADSVKGRFTISRDYAKNTVYLQMNRLKPEDTAVYYCAAGSYYWGQGTQVTVSS,high polyreactivity
7,QVQLVESAGGLVQAGGSLRLSCAASGSLFSLYAMGWYRQAPGKERELVAAITQSGGTKFYADSVKGRFTISRDNAKNTVYLQMNRLKPEDTAVYYCAAEWYRCYVPLGVAGEYDYWGQGTQVTVSS,low polyreactivity
8,QVQLVESGGGLVQAGGSLRLSCAASGSIFVQYAMGWCRQAPGKDRELVAAISDSGGSTYYADSVKGRFTISRDNAKNTVYVQMNSLKPEDTAVYYCAAVSTNSYSHRFGWGQGTQVTVSS,low polyreactivity
9,QVQLVESGGGLVQAGGSLRLSCAASGRIYGLYAMGWYRQAPGKERELVAAISEGGGSTNYADSEKGRFTISRDNAKNTFYLQMNSLKPDDTAVYYCAATYRTGVRRYYSWGQGTQVTVSS,low polyreactivity
10,QVQLVESGGGLVQAGGSLRLSCAASGRIFFRYAMGWYRQAPGKEREFVAAISCTGGSTYYADSVKGRFTISRDNAKNTVYLQMNSLKPEDTAVYYCAASVVSRPTYYAYYYWGQGTQVTVSS,high polyreactivity
11,QVQLVESGGGLVQAGGSLRLSCAASGRIFYYYAMGWYRQAPGKERELVAAINRSGGSTYYADSVKGRFTISRDNAKNTVYLQMNSLKPEDTAVYYCASYDYWGQGTQVTVSS,high polyreactivity
12,QVQLVESGGGLVQAVGSLRLSCAASGSIFGGYAMGWYRQAPGKERELVAAITYSGGSTYYADSVKGRFTISRDNAKNTVYLQMNSLKPEDTAVYYCAAESYDPYYEYDYWGQGTQVTVSS,high polyreactivity
13,QVQLVESGGGLVQAGGSLRLSCAASGSTFHVNAMGWYRQAPGKEREFVAAISWRTGSTYYADSVKGRFTISRDNAKNTVYLQRHSLKPEDTAVYYCAAKRSYSNYDYWGQGTQVTVSS,high polyreactivity
14,QVQLVESGGGLVQAGGSLRLSCAASGSTFDSYAMGWYRQAPGKERELVAAITTTGGSTFYADSVKGRFTISRDNAKNTVYLQMNSLKPEDTAVYYCADDDGWQEFEYWGQGTQVTVSS,low polyreactivity
15,QVQLVESGGGLVQAGGSLRLSCAASGSTFFSYAMGWYRQAPGKEREFVAAISWIDDGTYYADSVKGRFTISRDNAKNTVYLQMNSLKPEDTAVYYCAADIGAYRTWDYEYWGQGTQVTVSS,low polyreactivity
16,QVQLVESGGGLVQAGGSLRLSCAASGSTIYLYDMGWYRQAPGKERELVATITSGTSTTYADSVKGRFTISRDYAKNTVYLQMNSLKPADTAVYYCNATDVGIITVGYGHGGYYWGQGTQVTVSS,low polyreactivity
